Data as given in US20160053277A1, “Compositions Having Dicamba Decarboxylase Activity and Methods of Use” (PIONEER HI-BRED INTERNATIONAL, INC., priority 2013, published 2016).

B1: 118 (protein)
chain: MAKKPRIDMHSHFFPRISEQEAAKFDANHAPWLQVSAKGDTGSIMMGKNNFQPVYQALWDPAFRIEEMDAQGVDVQVTCATPVMFGYTWEANKAAQWAERMNDFALEFAAHNPQRIKVLAQVPLQDLDLACKEASRAVAAGHLGIQIGNHLGDKDLDDATLEAFLTHCANEDIPILVHGTDMMGGQRMKKWGLPWLVALAAEVQLAILSLILSGAFERIPKSLKICFSHGGGSFAFLLGLVDEAWRHVDIVREDCPRPPSEYVDRFFVDSVGNPGALELLVSVMGEDRVMLGSDYPHTTGEQKIGGLVLSSNLGESAKDKIISGNASKFFNINV
modifications: Dicamba decarboxylase variant clone: DC.5.033
B2: 119 (protein)
chain: MAKKPRIDMHSHFFPRISEQEAAKFDANHAPWLQVSAKGDTGSIMMGKNNFQPVYQALWDPAFRIEEMDAQGVDVQVTCATPVMFGYTWEANKAAQWAERMNDFALEFAAHNPQRIKVLAQVPLQDLDLACKEASRAVAAGHLGIQIGNHLGDKDLDDATLEAFLTHCANEDIPILVHGWDMMGGQRMKKWGLYWLVAHHAEVQLAILSLILSGAFERIPKSLKICFSHGGGSFAFTLGWVDEAWRHVDIVREDCPRPPSEYVDRFFVDSVGNPGALELLVSVMGEDRVMLGSDYPLTTGEQKIGGLVLSSNLGESAKDKIISGNASKFFNINV
modifications: Dicamba decarboxylase variant clone:DC.5.034
B3: 1 (protein, listed as Rhizobium sp.)
chain: MAQGKVALEEHFAIPETLQDSAGFVPGDYWKELQHRLLDIQDTRLKLMDAHGIETMILSLNAPAVQAIPDRRKAIEIARRANDVLAEECAKRPDRFLAFAALPLQDPDAATEELQRCVNDLGFVGALVNGFSQEGDGQTPLYYDLPQYRPFWGEVEKLDVPFYLHPRNPLPQDSRIYDGHPWLLGPTWAFAQETAVHALRLMASGLFDEHPRLNIILGHMGEGLPYMMWRIDHRNAWVKLPPRYPAKRRFMDYFNENFHITTSGNFRTQTLIDAILEIGADRILFSTDWPFENIDHASDWFNATSIAEADRVKIGRTNARRLFKLDGA
B4: 117 (protein)
chain: MAKKPRIDMHSHFFPRISEQEAAKFDANHAPWLQVSAKGDTGSIMMGKNNFRPVYQALWDPAFRIEEMDAQGVDVQVTCATPVMFGYTWEANKAAQWAERMNDFALEFAAHNPQRIKVLAQVPLQDLDLACKEASRAVAAGHLGIQIGNHLGDKDLDDATLEAFLTHCANEDIPILVHPWDMMGGQRMKKWMLPVLVAAPAEVQLAILSLILSGAFERIPKSLKICFAGGGGSFAFLLGIVDLAWRHRDIVREDCPRPPSEYVDRFFVDSLVFNPGALELLVSVMGEDRVMLGSDYPFPTGEQKIGGLVLSSNLGESAKDKIISGNASKFFNINV
modifications: Dicamba decarboxylase variant clone: DC.5.008

Columns and labels:
[1] = Product analysis of reactions of purified His-tag protein with dicamba (14C assay, GC/MS, LC-MS/MS); type: biochemical; conditions: for enzymatic reaction products detected: purified protein incubated with dicamba
Experimental: Alternatively, dicamba decarboxylase activity can be monitored by measuring decarboxylation products other than CO2 using product detection methods. The decarboxylation product of dicamba, 2,5-dichloro anisole or 2,5-DCA (FIG. 1C), is a volatile compound with a flash point of 21° C. To capture this volatile compound for detection, 140 ul of toluene solution is added on top of 1 ml reaction mixture to form a trapping layer in a 1.5 ml eppendorf tube. […] The reaction is kept still at room temperature overnight before being vortex mixed and centrifuged at 14,000 rpm for 15 minutes. The top toluene phase is carefully removed using a micropipette and transferred into a 12×32 mm polypropylene vial (Vial 11 mm) from MicroLiter Analytical Supplies, Inc. (catalog number 11-5300-100). The vial is sealed with Crimp seal (11 mm with FEP/Nat Rubber) from MicroLiter Analytical Supplies, Inc. (catalog number 11-0020A) using a E-Z Crimper™ 11 mm from Wheaton Inc. 1 ul of the toluene mixture is taken from the sealed vials and injected in splitless mode into a GC/MS system for sample analysis (Agilent GC/MS system with a 6890A GC, a 5973N MSD and a CTC CombiPAL auto-sampler or with a 7890A GC, a 5975C MSD and an Agilent GC Sampler 80 auto-sampler).

[2] = Dicamba decarboxylation activity of computationally designed protein variants and their parents; conditions: for dicamba decarboxylase activity (native protein or designed variant): statement in the description
[3] = 14C assay with IPTG-induced recombinant E. coli cells: 14CO2 captured from [14C]-carboxyl-labeled dicamba; conditions: for Enzymatic Detection level: dicamba decarboxylation activity of the protein of the given SEQ ID NO, High / Low / No
[4] = Saturation mutagenesis of SEQ ID NO:109: dicamba decarboxylation activity of point mutants (carbon dioxide released); conditions: decarboxylation activity (carbon dioxide released) of point mutant compared with unmutated backbone protein; backbone SEQ ID NO: 109
[5] = compared to estimated CO2 formation (100%)

| Molecule | enzymatic reaction products detected [1] | dicamba decarboxylase activity (native protein or designed variant) [2] | Enzymatic Detection level [3] | Fold Activity [4] | relative amount of 2,5-DCA [1, 5] [%] | relative amount of 2,5-DCP [1, 5] [%] | relative amount of 4-chloro-3-methoxy phenol [1, 5] [%] | Percent Activity Improvement Over Parent ([2]; parent = 100) [%] | decarboxylation activity of dicamba ([3]; among the 108 sequences tested, recombinant E. coli cells) | Dicamba Decarboxylase Activity ([3]; induced recombinant E. coli cells, [14C]-carboxyl-labeled dicamba, 14CO2 capture) |
| --- | --- | --- | --- | --- | --- | --- | --- | --- | --- | --- |
| B1 | 2,5-DCA was detected | have dicamba decarboxylase activity | High | 1.4 | – | – | – | – | – | – |
| B2 | 2,5-DCA was detected | have dicamba decarboxylase activity | High | 1.6 | – | – | – | – | – | – |
| B3 | four enzymatic reaction products | – | High | 1.2 | < 1 | > 80 | < 10 | 100 | showed decarboxylation activity of dicamba | High |
| B4 | 2,5-DCA was detected | have dicamba decarboxylase activity | High | 1.8 | – | – | – | – | – | – |
